Experimental data as given in paper PMC9482650, “Quantitative fragmentomics allow affinity mapping of interactomes” (Nature Communications, 2022).
Blank lines part the entries; values can stand above or below the binder they belong to.

How the values were obtained:
Experiment in all cases: holdup assay
Parameters in all cases: key: below the threshold = too weak to quantify, mostly under pKd 3.1 to 4
[1] = molecular target: NOS1, P29475
[2] = molecular target: T1, TJP3_3, O95049
T1 sequence (O95049 375-456, limits assumed, looked up): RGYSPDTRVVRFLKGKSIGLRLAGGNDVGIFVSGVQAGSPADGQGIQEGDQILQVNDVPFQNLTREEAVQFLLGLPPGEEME

[3] = molecular target: Inadl_3, Q8NI35
Inadl_3, Q8NI35, sequence (Q8NI35 359-469): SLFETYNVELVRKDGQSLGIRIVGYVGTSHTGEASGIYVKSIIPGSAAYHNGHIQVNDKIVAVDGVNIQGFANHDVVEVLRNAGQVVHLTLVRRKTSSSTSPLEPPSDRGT

[4] = molecular target: T2, HTRA3, P83110
T2 sequence (P83110 354-453, limits assumed, looked up): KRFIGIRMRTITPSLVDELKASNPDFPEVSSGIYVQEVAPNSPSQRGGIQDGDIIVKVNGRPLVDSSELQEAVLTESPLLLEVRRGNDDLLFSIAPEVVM

[5] = molecular target: T3, PDZRN3_1, Q9UPQ7
T3 sequence (Q9UPQ7 244-349, limits assumed, looked up): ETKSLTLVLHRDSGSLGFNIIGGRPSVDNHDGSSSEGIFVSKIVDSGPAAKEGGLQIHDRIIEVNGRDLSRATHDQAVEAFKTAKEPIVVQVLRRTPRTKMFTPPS

[6] = molecular target: NHERF4_1, Q86UT5-2
NHERF4_1, Q86UT5-2, sequence (Q86UT5 other isoform, or with tags, fused parts or gaps): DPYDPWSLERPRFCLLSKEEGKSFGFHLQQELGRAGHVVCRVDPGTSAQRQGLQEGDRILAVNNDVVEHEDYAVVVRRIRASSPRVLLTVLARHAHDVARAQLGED

[7] = molecular target: T4, APBA1_1, Q02410
T4 sequence (Q02410 651-752, limits assumed, looked up): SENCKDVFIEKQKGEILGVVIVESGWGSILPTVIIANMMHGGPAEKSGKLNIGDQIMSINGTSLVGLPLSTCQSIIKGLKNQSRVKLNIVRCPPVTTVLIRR

[8] = molecular target: TJP2_1, Q9UDY2
TJP2_1, Q9UDY2, sequence (Q9UDY2 24-128): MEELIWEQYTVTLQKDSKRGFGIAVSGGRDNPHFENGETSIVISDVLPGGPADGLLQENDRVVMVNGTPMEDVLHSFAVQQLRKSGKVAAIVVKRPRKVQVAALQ

[9] = molecular target: Inadl_4, Q8NI35
Inadl_4, Q8NI35, sequence (Q8NI35 547-651): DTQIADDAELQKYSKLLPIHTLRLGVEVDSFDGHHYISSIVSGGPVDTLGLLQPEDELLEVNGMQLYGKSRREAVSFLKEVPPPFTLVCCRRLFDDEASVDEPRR

[10] = molecular target: T5, GRIP1_4, Q9Y3R0
T5 sequence (Q9Y3R0 467-571, limits assumed, looked up): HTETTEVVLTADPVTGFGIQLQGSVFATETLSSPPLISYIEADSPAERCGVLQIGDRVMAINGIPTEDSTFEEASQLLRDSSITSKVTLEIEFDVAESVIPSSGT

[11] = molecular target: SCRIB_2, Q14160
SCRIB_2, Q14160, sequence (Q14160 857-960): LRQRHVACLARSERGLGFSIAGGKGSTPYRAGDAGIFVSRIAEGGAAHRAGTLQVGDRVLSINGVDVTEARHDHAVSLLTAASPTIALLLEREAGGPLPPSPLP

[12] = molecular target: T6, APBA1_2, Q02410
T6 sequence (Q02410 742-832, limits assumed, looked up): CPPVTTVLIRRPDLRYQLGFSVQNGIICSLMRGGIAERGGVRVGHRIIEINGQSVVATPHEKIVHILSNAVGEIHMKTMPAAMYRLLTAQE

[13] = molecular target: HTRA1, Q92743
HTRA1, Q92743, sequence (Q92743 360-477): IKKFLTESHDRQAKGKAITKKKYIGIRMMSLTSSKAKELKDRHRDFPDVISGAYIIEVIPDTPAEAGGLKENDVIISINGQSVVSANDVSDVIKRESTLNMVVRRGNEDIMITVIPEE

[14] = molecular target: DLG4_3, P78352
DLG4_3, P78352, sequence (P78352 306-403): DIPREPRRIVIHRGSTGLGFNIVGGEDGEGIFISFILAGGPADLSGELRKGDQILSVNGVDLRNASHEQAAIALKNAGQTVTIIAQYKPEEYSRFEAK

[15] = molecular target: T7, GRIP1_5, Q9Y3R0
T7 sequence (Q9Y3R0 568-668, limits assumed, looked up): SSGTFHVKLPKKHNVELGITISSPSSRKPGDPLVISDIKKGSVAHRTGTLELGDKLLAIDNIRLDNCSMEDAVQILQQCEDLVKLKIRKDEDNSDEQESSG

[16] = molecular target: T8, TIAM2, Q8IVF5
T8 sequence (Q8IVF5 885-986, limits assumed, looked up): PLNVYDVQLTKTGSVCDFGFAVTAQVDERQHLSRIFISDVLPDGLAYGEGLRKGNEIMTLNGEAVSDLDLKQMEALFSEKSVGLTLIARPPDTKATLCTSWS

[17] = molecular target: GIPC2, Q8TF65
GIPC2, Q8TF65, sequence (Q8TF65 112-203): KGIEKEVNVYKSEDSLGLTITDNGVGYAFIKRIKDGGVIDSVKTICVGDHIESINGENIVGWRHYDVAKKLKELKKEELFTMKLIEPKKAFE

[18] = molecular target: T9, MPDZ_10, O75970
T9 sequence (O75970 1624-1722, limits assumed, looked up): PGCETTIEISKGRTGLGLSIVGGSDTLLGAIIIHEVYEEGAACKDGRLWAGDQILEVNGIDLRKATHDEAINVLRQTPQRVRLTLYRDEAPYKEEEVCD

[19] = molecular target: Inadl_1, Q8NI35
Inadl_1, Q8NI35, sequence (Q8NI35 113-229): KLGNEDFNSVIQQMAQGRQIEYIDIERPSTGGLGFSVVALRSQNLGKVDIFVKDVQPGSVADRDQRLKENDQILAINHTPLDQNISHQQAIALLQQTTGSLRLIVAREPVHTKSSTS

[20] = molecular target: GOPC, Q9HD26
[21] = molecular target: Inadl_2, Q8NI35
Inadl_2, Q8NI35, sequence (Q8NI35 238-335): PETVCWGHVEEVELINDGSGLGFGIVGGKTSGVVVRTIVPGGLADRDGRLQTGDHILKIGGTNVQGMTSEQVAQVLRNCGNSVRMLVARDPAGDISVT

[22] = molecular target: T10, HTRA4, P83105
T10 sequence (P83105 378-476, limits assumed, looked up): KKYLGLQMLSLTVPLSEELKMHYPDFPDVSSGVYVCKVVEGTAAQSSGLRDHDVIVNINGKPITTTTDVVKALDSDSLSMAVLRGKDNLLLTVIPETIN

[23] = molecular target: T11, DFNB31_2, Q9P202
T11 sequence (Q9P202 274-371, limits assumed, looked up): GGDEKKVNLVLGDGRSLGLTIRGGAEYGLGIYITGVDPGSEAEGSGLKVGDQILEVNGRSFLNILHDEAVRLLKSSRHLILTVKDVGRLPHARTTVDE

[24] = molecular target: T12, FRMPD1, Q5SYB0
T12 sequence (Q5SYB0 52-145, limits assumed, looked up): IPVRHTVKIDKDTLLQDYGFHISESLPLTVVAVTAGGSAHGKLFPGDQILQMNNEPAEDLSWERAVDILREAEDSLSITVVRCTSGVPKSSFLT

[25] = molecular target: MAGI2_4, Q86UL8
MAGI2_4, Q86UL8, sequence (Q86UL8 772-865): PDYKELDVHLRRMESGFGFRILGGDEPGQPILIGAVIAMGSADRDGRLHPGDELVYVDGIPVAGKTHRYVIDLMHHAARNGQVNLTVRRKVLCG

[26] = molecular target: SCRIB_3, Q14160
SCRIB_3, Q14160, sequence (Q14160 999-1103): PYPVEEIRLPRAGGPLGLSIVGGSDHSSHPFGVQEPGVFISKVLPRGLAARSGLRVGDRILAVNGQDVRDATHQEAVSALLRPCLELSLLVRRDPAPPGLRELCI

[27] = plain residues with an end cap or a label only (N-terminal biotin on a linker: ttds)
[28] = plain residues with an end cap or a label only (N-terminal biotin on a linker: ahx)
[29] = plain residues with an end cap or a label only (N-terminal biotin on a linker: ado-ado)

NOS1, P29475, sequence (P29475 9-101): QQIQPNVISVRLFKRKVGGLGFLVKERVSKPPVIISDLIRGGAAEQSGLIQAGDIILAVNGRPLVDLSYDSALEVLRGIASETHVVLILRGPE

pKd [1, 27]: below the threshold
pKd [2, 27]: below the threshold
pKd [3, 27]: 3.7
pKd [4, 27]: below the threshold
pKd [5, 27]: below the threshold
pKd [6, 27]: below the threshold
pKd [7, 27]: below the threshold
pKd [8, 27]: below the threshold
pKd [9, 27]: below the threshold
pKd [10, 27]: below the threshold
pKd [11, 27]: 3.57
pKd [12, 27]: below the threshold
pKd [13, 27]: below the threshold
pKd [14, 27]: below the threshold
pKd [15, 27]: below the threshold
pKd [16, 27]: below the threshold
pKd [17, 27]: 3.8
pKd [18, 27]: below the threshold
pKd [19, 27]: below the threshold
pKd [20, 27]: below the threshold
pKd [21, 27]: below the threshold
pKd [22, 27]: below the threshold
pKd [23, 27]: below the threshold
pKd [24, 27]: below the threshold
pKd [25, 27]: below the threshold
pKd [26, 27]: 4.82
Binder: NQLAWFDTDL [CTNNB1, P35222]

pKd [1, 28]: below the threshold
pKd [2, 28]: below the threshold
pKd [3, 28]: below the threshold
pKd [4, 28]: below the threshold
pKd [5, 28]: 3.49
pKd [6, 28]: 4.15
pKd [7, 28]: below the threshold
pKd [8, 28]: below the threshold
pKd [9, 28]: below the threshold
pKd [10, 28]: below the threshold
pKd [11, 28]: below the threshold
pKd [12, 28]: below the threshold
pKd [13, 28]: below the threshold
pKd [14, 28]: below the threshold
pKd [15, 28]: below the threshold
pKd [16, 28]: below the threshold
pKd [17, 28]: below the threshold
pKd [18, 28]: 3.77
pKd [19, 28]: below the threshold
pKd [20, 28]: below the threshold
pKd [21, 28]: below the threshold
pKd [22, 28]: below the threshold
pKd [23, 28]: below the threshold
pKd [24, 28]: below the threshold
pKd [25, 28]: below the threshold
pKd [26, 28]: below the threshold
Binder: GIFPTLTSPL [SHROOM3, Q8TF72]

pKd [1, 29]: below the threshold
pKd [2, 29]: below the threshold
pKd [3, 29]: below the threshold
pKd [4, 29]: below the threshold
pKd [5, 29]: below the threshold
pKd [6, 29]: below the threshold
pKd [7, 29]: below the threshold
pKd [8, 29]: below the threshold
pKd [9, 29]: below the threshold
pKd [10, 29]: below the threshold
pKd [11, 29]: below the threshold
pKd [12, 29]: below the threshold
pKd [13, 29]: below the threshold
pKd [14, 29]: 3.68
pKd [15, 29]: below the threshold
pKd [16, 29]: below the threshold
pKd [17, 29]: below the threshold
pKd [18, 29]: below the threshold
pKd [19, 29]: below the threshold
pKd [20, 29]: 3.68
pKd [21, 29]: below the threshold
pKd [22, 29]: 3.7
pKd [23, 29]: 3.81
pKd [24, 29]: below the threshold
pKd [25, 29]: below the threshold
pKd [26, 29]: below the threshold
Binder: GKKSVKHSKI [ACOT6, Q3I5F7]
